Test results as given in publication PMC10525234, “Antifungal Action of Arabidopsis thaliana TCP21 via Induction of Oxidative Stress and Apoptosis” (Antioxidants, 2023).

Biological target: the molecule itself
Assay: negative-stain transmission electron microscopy; purified AtTCP21 on a glow-discharged carbon-coated copper grid, negatively stained with 2% uranyl acetate; protein dialyzed against 25 mM HEPES pH 7.2, 150 mM NaCl

B1: Arabidopsis thaliana TCP21 (natural protein)
chain: not shown
notes: full-length protein expressed from cDNA; also called AtTCP21; recombinant AtTCP21; source: E. coli BL21(DE3), pET28a, purified (Ni-NTA, SEC)
B1: binds.
